Source: the nanobody polyreactivity screen of Harvey et al. (2022)

Experiment: yeast display, Sf9 membrane polyspecificity reagent, FACS + sequencing; frameworks hold sequencing errors
Outline: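 Genes from sorted yeast were amplified by colony PCR, read by MiSeq 2 × 250 sequencing and filtered on CDR length. These cells carried a synthetic nanobody library in Saccharomyces cerevisiae BJ5465 and were sorted by FACS into low and high (top ~1%) gates on anti-HA and streptavidin fluorescence. Polyreactivity is labelled according to the gate of origin.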

| Sequence | polyreactivity (PSR sort gate) |
| --- | --- |
| QVQLVESGGGLVQAGGSLRISCAASGLTILFYAMAWYRQAPGKERELVASIRWSDGRTYYADSVKGRFTISRDNAKNTVYLQMNSLKPEDTAVYYCAARSYLTPEYYYWGQGTQVTVSS | high polyreactivity |
| QVQLVESGGGLVQAGGSLRLSCAAYGSTFSTYAMGWYRQAPGKEREMVAAITLSSGRTTYADSVKGRFTISRDNAKNTVYLQMNSLKPEDTAVYYCNAYYGAAFTYWDYYWGQGTQVTVSS | low polyreactivity |
| QVQLVESGGGLVQAGGSLRLSCAPSGFTFVFYAMGWYRQAPGKERELVAAISSRGGSTYYADSVKGRFTISRDNAKNTVYLQMNSLKPEDTAVYYCNVVSTYWTTYEEYYWGQGTQVTVSS | high polyreactivity |
| QVQLQESRGGLVQAGGSLCLSFAASGTIFFDGDMGGYRQAPGKEREFVAAINPGGSGYYADSVKGRLPLAAITHTVYLQMNSLKPEDTAVYYCAAKLFDVYGYYYWGQGTQVTLSS | low polyreactivity |
| QVQHVESGGGLVQAGGSLRLSSAASGFTFNRYAMGWNSQAPGKESELVATITSGGNTYYADSVKGRFTLSRDNAKNTVYLEMNTLKPEDTAVYYCNNRGWYSVYRRDYWGQGTQVTVSS | high polyreactivity |
| QVQLVESGGGLVQAGGSLRLSCAASGSIFSTNAMGWYRQAPGKERELVAVITGIGGITYYADSVKGRFTISRDIAKNTVYLQMNSLIPEDTAVYYCAVGYWDSRYRYDLPNSDYWGQGTEVTVSS | low polyreactivity |
| QVQLVESGGGLVQAGGSLRLSCAASGFTFRKYAMGWYRQAPGKERELVAAISSSGTSTYYADSVKGRFTISRDNAKNTVYLQMNSLKPEDTAVYYCAADRYYWGRYTLNYWGQGTQVTVSS | low polyreactivity |
| QVQLVESGGGLVQAGGSLRLSCAASGSTFPYYAMGWYRQAPGKERELVAAITSSASTYYADSVKGRFTISRDNAKNTVYLQLNSPKPEDTADYYCPVRSPYRLSPWRVGYWGQGTQVTVSS | high polyreactivity |
| QVQLVESGGGLVQAGGSLRLICAASGRIFLGYAMGWYRQAPGKERELVARITLIGGGTNYADSVKGRFTISRDNAKNTVYLQMNSLKPVDTAVYYCAAKSPLRPWWVGAVSGNYWGQGTQVTVSS | low polyreactivity |
| QVQLVESGGGLVQAGGSLRLSCAASGSIFSGKAMGWYRQAPGKERELVASINRSGGSTYSADSVKGRFTISRDNAKYTVYLQMNSLKPEDTAVYSCAARRVWLAGYDSWGQGTQVTVSS | low polyreactivity |
| QVQLVESGGGLVQAGGSLRLSCAASGSSFGYYAMGWYRPAPGKERELVAAITRRGVNTYYADSVKGRFTISRDNAKNTVYLQMNSLKPEDTAVYYCAATWWQYAQGLHRYDYWGQGTQVTVSS | high polyreactivity |
| QVQLVESGGGLVQAGGTLRLSCDPSGRTFYYYAMGWYRQAPGKERELVATIRSTGSTNYADSVKGRFTISRDNAKNTVYLKMNSLKPEDTAVYYCAAKPLQGVRRVEYWGQGTQVTVSS | high polyreactivity |
| QVQLVESGGGLVQAGGSLRLSCAASGRIFYPYAMGWYRQAPGTERELVAAISYSGGSTFYADSVKGRFTISRDNAKNTVYFQMNSLKPEDTAVYFCNKVWFARYWYRDFDYWGQGTQVTVSS | high polyreactivity |
| QVQLVESGGGLVQAGGSLRLSCAASGFTFNNYAMGWYRQAPGKERELVAAISSGAGTYYADSVKGRFTISRDNAKNTVYLQMNSLKPEDTAVYYCNASLKYQGRTRITYRDDYWGQGTQVTVSS | low polyreactivity |
| QVQLVESGGGLVQAGGSLRLSCDASGFIFYYNAMGWYRQAPGKESELVAGISWDGSTYYADSVKGRFTISRDNAKNTVYLQMNSLKPEETAVYYCAAALLDDYFDLFIFGYWGQGTQVTVSS | low polyreactivity |
| QVQLVESGGGLVQAGGSLRLSCAASGSIFGVYAMGWYRQAPGKERELVAAIDSGSSTDYADSVKGRFTISRDNAKNTVYLQMNSLKPEDTAVYYCYPLDLAPVDYWGQGTQVTVSS | low polyreactivity |
| QVQLVESGGGLVQAGGSLRLSCAASGFTFGHYARGWSRQAPGKERELVAAISRSGGTTSYADSVKGRFTISRDNAKNTVYLQMNSLKTEDTAVYYCNKDYIWARYGGGRDYWGQGTQVTVSS | low polyreactivity |
| QVQLVESGGGLVQAGGSLRLSCAASGSIFIQYAMGWYRQAPGKERELVAAINSSGGRTYYADSVKGRFTISRDNAKNTVYLQMNSLKPEDTAVYYCAADHGSSFDWGQGTQVTVSS | low polyreactivity |
| QVHLVESGGGLVQAGGSLRLSCAASGFTFRYYGMGRYRQAPGKERELVAAISRGGSTNYADSVKGRFTISRDNAKNTVYLQMTSLKPEDTAVYYFAKAGLTYRALRYYWGQGTQVTVSS | high polyreactivity |
| QVQLVESGGGIVQAGGSLRLSCAASGSTFWIYAMGWYRQAPGKERELVAAISWRGGRTYYADSVKGRFTISRDNAKNTVYLQMNSLKPQDTAVYYCNAQKRDGSMGYWGQGTQVTVSS | high polyreactivity |
| QVQLVESGGGLVQAGGSLRLSCAASGSIFAVYAMGWYRQAPGKERELVATITGIDTGTYYADSVKGRFTISRDNAKNTVYLQMNSLKPEDTAVYYCAAVWRYRHLRFYYWGQGTQVTVSS | high polyreactivity |
| QVQLVESGGGLVQAGGILRLSCAASGFTSWDNDMGWYRQAPGKERELVAAISRGGSTNYADSVKGRFTLSRDNAKNTVYLQMNSLKPEDPAVYYCATAAVTPVWYDYWGQGTQVTVSS | low polyreactivity |

| Sequence | polyreactivity (PSR sort gate) |
| --- | --- |
| QVQLVESGVGLVQAGGSLRLSCAASGLTFLWYAMGWYRQAPGKERELVAAITSGGRTKYADSVKGRFTISRDNAKNTVYLQMNSLKPEDTAVYYCAAYTQWWGYDYWGQGTQVSVSS | high polyreactivity |
| QVQLVESGGGLVQAGGSLRLSCAASGGTFYVNALGWYRQAAGKERELVAAISYSGGNTYYADSVKGRFTISRDNAKNTVYLQMNSLKPEDTAVYYCAGEVFPWWGDDYWGQGTQVTVSS | low polyreactivity |
| QDQLVESGGGLVQSGGSLRLSCAASGYIFGPYAMGWYRQAPGKEREFVATISGSVGSTYYADSVKGRFTISRDNGKNTVYLQMNSLKPQDTAVYYCNKDHSVYGYEYWGQGTQVTVSS | low polyreactivity |
| QVQLVESGGRLVQAGGSLRLICAASGLIFRAYAMGWYIQAPGKERELVAAISRNGGSTYYADSVKGRFTISRDNAKNTVYLQMNILKPEDTAGYYCNKVSRSSVYQDYYYWGQGTQVTVSS | high polyreactivity |
| QVQLVESGGGLVQAGGSLRLSCAASGRIFGRNAMAWYRQAPGKERELVAAISTSGGTYYADSVKGRFTISRDNAKNTVYLQMISLKPEDTAVYYCNDRGRTQQRWVDYWGQRTQVTVSS | high polyreactivity |
| HVQLVEAGGGLVQAGGSLRVSCAASGFTIHYNAMGWYRQAPGKGWELVATISKSAGITSYADSVKGRFTISRDNATNTVYFPMNSLKPEDTAVYYCAADKSYRRVYYWGQGSQVTVSS | low polyreactivity |
| QVQLVESGGGLVQAGGSLRLSCAASGFTIVYYAMGWYRQAPGKERELVAAITWSGGNTYYADSVKWRITISRDNAKNTVYLHMNSLKPEDNAVYYCAASPRGRRTTVGYPRRPFDYWGLGTQVTVSS | high polyreactivity |
| QVQLVESGGGLVQAGGSLRLSCAASGRIFGQYAMAWYRHAPGKERELVAAITQRGGSTYYADSVKGRFTISRDNAKNTVYLQMNSLKPEDTAGYYCNKRYRFTGIRDPFDYWGQGTQVTVSS | low polyreactivity |
| QVQLVESGGGLVQAGGSLRLSCAASGSIFRGNAMGWYRQAPGKERELVAAISKSGGSTYYADSVKGRFTISRDNAKNTVYLQMNSLKPEDTAVYYRAARTTYLYGMYYWGQGTQVTVSS | low polyreactivity |
| QVQLVESGGGLVQAGGSLRLSCAPSGGIFGRNAMGWYRQAPGKESELVAGITNGGSTTYADSVKGRFTISRDNAKNTVYLQMNSLKPEDTAVYYCAVQLYRRWPYYQTHGYDYWGQGTQVTVTS | low polyreactivity |
| QLQLVESGGVIVQAGGSLRLSCAASGITIYYNAMGGYRHAPGQVRELVAAITRSGGSPNYADSVKGRFTISRDNAKNNVYLQMKSLKPEDTAVYSCAKGHLYAGHRHYAYGYWGQGTQVTVSS | low polyreactivity |
| QVQLVESGGGLVQAGGSLRLSCAASGNLFDYYAMGWYRQAPGKERELVAAISTGTSTYADSVKGRFTISRDNAKNTVYLQMNSLKPEDTAVYYCAADVGIRPLNYHPYNYWGQGTQVTVSS | low polyreactivity |
| HVQLVESGGGLVQAGGSLRLSCAASGFTFRRNAMGWYRQSPGKERELVASITQRGGSTYYADSVKGRFTISRDNAKNTVYLQMNSLKPADTAVYDCNARSWDSFHPHDYWGQGTLVTVSS | high polyreactivity |
| QVQLVESGGGLVQAGGSLRLSCAASGFTFDYYDLGWYRQAPGKERELVAGITYSGGRTRYADSVKGRFTISRDNAKNTVYLQMNSLKPEDTSVDYCAARPGYPYRMNYWGQGTQVTVSS | low polyreactivity |
| QVQLVESGGGIVQAGGSLRLSCAASGFLYFFYAMGWYRQAPRKQRELVAANSDGVSTYYADSVKGRFTISRDNAKNTVYLQMNSLKPEDTAVFYCAVSRGDDPEFDYWGQCTQVTVSS | low polyreactivity |
| QVQLVESGGGLVQAGGSLRLSCAASGRTLSWYAMGWYRQAPGKERELVAAISYRGVSTYYADSVKGRFTISRDNAKNTVYLQMNSLNPEDTAVYYCAAESWYYSYIVEMEYWGQGTQVTVSS | high polyreactivity |
| QVQLQESGGGLVQACGSLCLICAASSYFSTYYSMGWYRKAPSKGRELVAAIDSGSSTNYADSVEGRFTISRDNAKNTVYLQMISLKPGDTAVYYCAAPWGHLVVHPYRGQGTQVTVSS | high polyreactivity |
| QVHLVDSGGGLVQAGGSLRLSCATSGRIFGAYAMVWYRQAPGKESELVAAITSRGGNTYYADSVKGRFTISRDNAKNTVYLQMNSLKPEDTAVYYCAAGHDKRRQYYVGQSAFDYWGQGTQLTVSS | low polyreactivity |
| QVQLVETGGGLVQAGGSLRLSCAASGITFASYAMGWYRHAPGKEREFVATITTGGTNTYYADSVKGRFTLSRDNAKKTVYLQMNSQKPEDTAVYYCAADSTPYVLSGNYDYWGQGTQVTVSS | low polyreactivity |
| QVQLVESGGGLVQAGGSLRLSCAASGFTFPRNTMGWYRQAPGKERELVAVISRSGGRSYYADSVKGRFTISRDNAKNTVYLQMNSLKPEDTAVYYCAADTSVRFDYWGQGTQVTVSS | high polyreactivity |
| QVQLVESGGGLVQAGGSLRLSCADSGNIFSTYAMGWYRQEPGKERELVASISENGGSTYYADSVKGRFTISRDNAKNTVYLQMNCLKPEDTAVYYCAIGPLYSLFFQHDAPYRYGYWGQGTQVTVSS | low polyreactivity |
